Assay results from patent US20250257346A1.

B1: IdeE combined mutant E97D_del18 (protein)
chain: ITSVWTKGVTPLTPEQFRYNNEDVIHAPYLAHQGWYDITKAFDGKDNLLCGAATAGNMLHWWFDQNKTEIEAYLSKHPDKQKIIFNNQELFDLKAAIDTKDSQTNSQLFNYFRDKAFPNLSARQLGVMPDLVLDMFINGYYLNVFKTQSTDVNRPYQDKDKRGGIFDAVFTRGDQTTLLTARHDLKNKGLNDISTIIKQELTEGRALALSHTYANVSISHVINLWGADFNAEGNLEAIYVTDSDANASIGMKKYFVGINAHRHVAISAKKIEGENIGAQVLGLFTLSSGKDIWQKLSHHHHHH
B2: IdeE mutant IDEEV2 (protein)
chain: ITSVWTKGVTPLTPEQFRYNNEDVIHAPYLAHQGWYDITKAFDGKDNLLCGAATAGNMLHWWFDQNKTEIEAYLSKHPDKQKIIFNNQELFDLKAAIDTKDSQTNSQLFNYFRDKAFPNLSARQLGVMPDLVLDMFINGYYLNVFKTQSTDVNRPYQDKDKRGGIFDAVFTRGDQTTLLTARHDLKNKGLNDISTIIKQELTEGRALALSHTYANVSISHVINLWGADFNAEGNLEAIYVTDSDANASIGMKKYFVGINAHGHVAISAKKIEGENIGAQVLGLFTLSSGKDIWQKLS

What was measured:
Trastuzumab = test: cell-based or functional assay
[1] = molecular target: human IVIg (intravenous immunoglobulin)

Row | Molecule | cleavage of human IgG1, SDS-PAGE (fold of wild-type IdeE) (Trastuzumab) | Fold of activity relative to wild-type (cleavage of human IgG1, ELISA) (Trastuzumab) [fold] | other results
1 | IdeE C-terminal truncated mutant WT_delC5 (enzyme) | > 2 |  | 
2 | IdeE C-terminal truncated mutant WT_delC10 (enzyme) | > 2 |  | 
3 | IdeE mutant A10K (enzyme) |  | 1.99 | 
4 | IdeE mutant A10R (enzyme) |  | 2.2 | 
5 | IdeE mutant A59I (enzyme) |  | 2.31 | 
6 | IdeE mutant A59L (enzyme) | > 2 | 2.41 | 
7 | IdeE mutant A59V (enzyme) | > 2 | 2.68 | 
8 | IdeE mutant E97D (enzyme) | > 2 | 2 | 
9 | IdeE mutant R280H (enzyme) | > 2 | 2.3 | 
10 | IdeE mutant R280K (enzyme) |  | 2.2 | 
11 | IdeE mutant T8D (enzyme) | > 2 | 2.21 | 
12 | IdeE mutant T8E (enzyme) |  | 2.09 | 
13 | IdeE mutant T8W (enzyme) | > 2 | 2.58 | 
14 | IdeE mutant T8Y (enzyme) |  | 2.3 | 
15 | IdeE mutant T24A (enzyme) | > 2 | 2.23 | 
16 | IdeE mutant T24G (enzyme) |  | 2.09 | 
17 | IdeE mutant T24S (enzyme) |  | 2.18 | 
18 | B1 |  |  | cleavage in human serum, SDS-PAGE (IgG1 in human serum): E97D_del18 cleaves in human serum to produce an apparent 25 kD Fc fragment; cleavage in mouse serum, SDS-PAGE (IgG1 in mouse serum): little or no cleavage activity against IgG1 in mouse serum; cleavage of serum IgG, SDS-PAGE (canine IgG): can effectively cleave rabbit, canine, and monkey serum IgG; cleavage, SDS-PAGE (canine IgG): E97D_del18 could effectively cleave canine IgG, rabbit IgG and mouse IgG2a; cleavage of human IVIg in mouse serum and plasma, SDS-PAGE [1]: E97D_del18 is effective in cleaving human IVIg in both mouse serum and plasma; cleavage of serum IgG, SDS-PAGE (monkey IgG): can effectively cleave rabbit, canine, and monkey serum IgG; cleavage of serum IgG, SDS-PAGE (mouse IgG): almost no cleavage effect for rat and mouse serum IgG; cleavage of serum IgG, SDS-PAGE (pig serum IgG): poor cleavage effect for pig serum IgG; cleavage of serum IgG, SDS-PAGE (rabbit IgG): can effectively cleave rabbit, canine, and monkey serum IgG, with the best cleavage effect for rabbit serum IgG; cleavage, SDS-PAGE (rabbit IgG): E97D_del18 could effectively cleave canine IgG, rabbit IgG and mouse IgG2a; cleavage of serum IgG, SDS-PAGE (rat IgG): almost no cleavage effect for rat and mouse serum IgG
19 | B2 |  |  | digestion of purified IgG, non-reduction SDS-PAGE (1:200) (canine IgG): IDEEV2 can in species-specificity effectively digest IgG in rabbits, dogs, monkeys, and humans; digestion of purified IgG, non-reduction SDS-PAGE (1:200) (human IgG): IDEEV2 can in species-specificity effectively digest IgG in rabbits, dogs, monkeys, and humans; digestion of purified IgG, non-reduction SDS-PAGE (1:200) (monkey IgG): IDEEV2 can in species-specificity effectively digest IgG in rabbits, dogs, monkeys, and humans; digestion of purified IgG, non-reduction SDS-PAGE (1:200) (rabbit IgG): IDEEV2 can in species-specificity effectively digest IgG in rabbits, dogs, monkeys, and humans
